2 proteins from paper PMC3956926, “Acetate Kinase Isozymes Confer Robustness in Acetate Metabolism” (PLoS ONE, 2014) can be followed below.

Common to all, as to assay: purified protein
Substrate in data set [1]: CC(=O)O
The following applies: OAc to Ac-P, varying ATP, 4.2 mM MgCl2, 100 mM HEPES, 400 mM potassium glutamate, pH 7.5, apparent Km.

Substrate in data set [2]: Nc1ncnc2c1ncn2[C@@H]1O[C@H](COP(=O)(O)OP(=O)(O)OP(=O)(O)O)[C@@H](O)[C@H]1O
The class given is biochemical, Lactococcus cremoris. The settings on record: OAc to Ac-P, varying acetate, 4.2 mM MgCl2, 100 mM HEPES, 400 mM potassium glutamate, pH 7.5.

Substrate in data set [3]: Nc1ncnc2c1ncn2[C@@H]1O[C@H](COP(=O)(O)OP(=O)(O)O)[C@@H](O)[C@H]1O
The class given is biochemical, Lactococcus cremoris. The settings on record: Ac-P to OAc, varying Ac-P, 5 mM MgSO4, 100 mM HEPES, 400 mM potassium glutamate, pH 7.5.

Substrate in data set [4]: CC(=O)OP(=O)(O)O
The class given is biochemical, Lactococcus cremoris. The following applies: Ac-P to OAc, varying ADP, 5 mM MgSO4, 100 mM HEPES, 400 mM potassium glutamate, pH 7.5.

B1: AckA2 (Lactococcus cremoris subsp. cremoris MG1363) (protein)
chain: MEKTLAVNAGSSSLKWQLYEMPEETVIAKGIFERIGLSGSISTTKFNNEEHVRKQEIVDHRQAVLLLMDELIHFQLIHEFREITGIGHRVVAGGEFFKDSTIITPEVLAEIKNLSTLAPLHNPANVLGIEAFQRLLPDALAVAVFDTAFHSTLPEKAYRYPIPTKYYEDYSIRKYGAHGTSHMYVAQEAAKVLGKPLEELKIITAHIGNGASITAIEGGKSVDTSMGFTPLAGVMMGTRAGEMDASVIPYMLESDPSLRNAQDVIDILNKESGVLGVSELSSDMRDLSEAVAKGNPKAILAYEMYVDRLKKFIAQYFGVLNGADALIFTAGVGENDTAVRTDVVNGLSWFGMEIDESKNVRGAFGIISKPESKVKVLVVPTNEELVIARDVEAAK
notes: His-tagged (vector pQE30, N-terminal tag kept), from E. coli M15 pREP4 groESL, Ni-NTA; 84 kDa by gel filtration, monomer 43 kDa, homodimer; residue I331 in ATP site
For the protein B1, the Km in the data set “purified protein [1]” is given as 1.87 (0.29) mM; in the data set “purified protein [2]”, 0.21 (0.12) mM; in “purified protein [3]”, 1.15 (0.12) mM; in “purified protein [4]”, 0.086 (0.02) mM. Moreover, the kcat (as a rule, the number of substrate molecules converted per active site and unit of time at saturation) in the data set “purified protein [1]” is 394 s⁻¹; in the data set “purified protein [2]”, 394 s⁻¹; in “purified protein [3]”, 282 s⁻¹.

B2: AckA1 (Lactococcus cremoris subsp. cremoris MG1363) (protein)
chain: MTKTLAVNAGSSSMKWQMYEMPEEKVLAKGLIERIGLKDSIVTVKFGEEKEERVFDIPNHTEAVEVLLEDLKRLKIVEEFTEITGVGHRVVAGGEIFQKSTVVTPEVLQQVKDLSALAPLHNPANAAGIEAFLNLLPDATSVVVFDTAFHTTMPEKAFRYPLPKKYYTDYAVRKYGAHGTSHMYVSQEAAKLLGKPIEETKIITAHIGNGASITAVKGGESVDTSMGFTPLAGVMMGTRTGEMDPSVFPYLIENDSELKDAQDVVDMMNKESGLYGVSGISSDMRDIIAAKDTDADAKLAFEMYVDRIQKFIGQYLAVLNGADALVFTAGIGENSVPVREAILSGLTWFGIEVDPEKNVFGVEGEISKPSSRLKVFVIPTDEELVIARDVEALKK
notes: His-tagged (vector pQE30, N-terminal tag kept), from E. coli M15 pREP4 groESL, Ni-NTA; 100 kDa by gel filtration, monomer 43 kDa, homodimer; residue V331 in ATP site
On to B2, for which the Km in the data set “purified protein [1]” is 22.07 (1.05) mM; in the data set “purified protein [2]” it was 0.086 (0.0078) mM; in the data set “purified protein [3]”, 0.94 (0.09) mM; in the data set “purified protein [4]”, 0.35 (0.02) mM. The figures for the kcat in the data set “purified protein [1]”, in the data set “purified protein [2]” and in the data set “purified protein [3]” were 3234 s⁻¹, 3234 s⁻¹ and 1033 s⁻¹, respectively.
